From the DeepSol protein solubility set come the findings set out here.

A short description of the series: soluble on expression in E. coli; label from the status in PepcDB or PDB records.
“MKPKFETVELLSPTGEVVELKVVKRGLAQARPEPVDRNKPAWIKAPLPTGPRYQALKAMVRELRLHTVCQEALCPNIGECWTHGTLTVMILGDICTRACKFCAVHTGNPKGLVDPEEPRRVAEAIARMGVRYVVLTSVDRDDLPDGGASHFAATIRAIKERAPGVLVEALTPDFQGDLKAVETVLAANPEVYAQNLETVRRLTPKVRDPRAGYEQTLKVLAHAKKVRPDILTKSSLMLGLGETEEEILEAMRDLRAAGVDILTLGQYLRPTPAHLPVARYVPPEDFKRYEAWGYELGFREVFAGPLVRSSYRADRVFLEATQR”: the “soluble on expression in E. coli” value is given as “not soluble”.

Take “MSLSRAAIVDQLKEIVGADRVITDETVLKKNSIDRFRKFPDIHGIYTLPIPAAVVKLGSTEQVSRVLNFMNAHKINGVPRTGASATEGGLETVVENSVVLDGSAMNQIINIDIENMQATAQCGVPLEVLENALREKGYTTGHSPQSKPLAQMGGLVATRSIGQFSTLYGAIEDMVVGLEAVLADGTVTRIKNVPRRAAGPDIRHIIIATKVHCAISLK”: the “soluble on expression in E. coli” value is given as “soluble”. In the case of “MGSDKIHHHHHHMPEHDVRLQQLTVWLDEQLNDLFRDNAWGEVPAGSLTAASSDASFRRYFRWQGAGHSFVIMDAPPPQENCRPFVAIDHLLASADVHVPLIHAQDLERGFLLLGDLGTQTYLDIINADNADGLFADAIDALLKFQRLPMDAPLPSYDDALLRREVELFPEWYVGRELGLTFTDAQKATWQRVSQLLIDSALAQPKVLVHRDYMPRNLMQSTPNPGVLDFQDAVYGPVTYDITCLFKDAFVSWPQARVEGWLGDYWQQAQAAGIPVHAEFEAFHRASDLMGVQRHLKVIGIFARICHRDGKPRYLGDVPRFFAYINEVIGRRPELAELGELIAELQAGARA”, the “soluble on expression in E. coli” value is “not soluble”. Then “MGSDKIHHHHHHMPLQQESARQERKPVILMSMGQQDRNGHAYQVMTHKYMQPVVDISDCIPLLIPTCFGVADIEQYLDMADGVYLSGAASNIDPSLYGQENLTPEKKQDLARDLVDIALIKGAVKRGLPILGICRGMQEMNIAFGGDLYQKVHDEDHLNDHREDPDTPPDVQYGASHSISMVKGSWLHKLLGDTIEVNSLHGQGIKTLGKGLEALALAEDGLVEALHAPYLPQFTLGVQWHPEWKALENPDSIKIFKAFGEACRRRAGSALDLRIDKAS”, with “not soluble”; and “GSHMQAEILLTLKLQQKLFADPRRISLLKHIALSGSISQGAKDAGISYKSAWDAINEMNQLSEHILVERATGGKGGGGAVLTRYGQRLIQLYDLLAQIQQKAFDVLSDDDALPLNSLLAAISRFSLQTSARNQWFGTITARDHDDVQQHVDVLLADGKTRLKVAITAQSGARLGLDEGKEVLILLKAPWVGITQDEAVAQNADNQLPGIISHIERGAEQCEVLMALPDGQTLCATVPVNEATSLQQGQNVTAYFNADSVIIATLC”, with “soluble”. Then “MKDVSTDAPVDSARIINGKFAFADTTKIENPVIKILSIHASKMGLEYRLPVVIENGTIKASIADVVCTEGTMLNERMQDFLLAIDAYSAACTDKPVEQIKSGFSELLKRYIEMNNDNVIGTYIQTAYQSSL”, with “not soluble”. Consider “MGSDKIHHHHHHMPTPIKIGVSSCLLGEKVRYDGGHKHDRYITDTLGRFFEFVSVCPEAECGMPIPREAMRLEADGGEVRLVTSRSRVDKTEQMLDFCRRKVLELESEDLCGFIFKKDSPSSGLFNVKLYRRGMPTKAGRGLFADAVTKHFPLLPVEEEGRLHDMGLREHFIERVFAFRRWKDLLLGGKSLGRLVAFHADHKLLIMAHSPEVYREMGALVARGKELGCDDLFACYQELFMKALSLHATVRKNTNVLQHIAGYFKKQLTREEKAELQEVIGEYHRHLVPLIVPVTLLRHYVKKYGQEYLLKQVYLSPTPLELMLRNHV”, for which the “soluble on expression in E. coli” value is on record as “not soluble”. Then “MSDIERRHTIMAKGSVRKKGKKWYYRFYVEDASGNLVQKEYAGTESKSETEKLLRQAMDDYESKKFIAKSENITIGELLDIWAEEELKTGMLSNGTVQNYLGAITNIKKHPISERKLKNVTSEHLQAFFDLLSFGGTYPDGSERKGYSKDYIRSFSAVLQQSFRFAVSPKQYITFNPMQYIKLKYQTDEVDLFSDDDMDGDIQPIPREDYERLIEFLQNYNPPAILPIQIAYYAGLRIGEACGLAWQDVNLEEQCLTIRRSIRYDGSRHKNIIGPTKRKKVRIVDFGDTLAEILRNARKEQLKNRMQYGELYHKNYYREVKDKNRVYYEFYHLDGTENVPEDYKEISFVCLRPDGSLELPSTLGIVCRKIAQKLDGFEGFHFHQLRHTYTSNLLANGAAPKDVQELLGHSDVSTTMNVYAHSTRKAKRESARLLDKVAGND”, with “not soluble”; and “MMKTMRIAAIPGDGIGKEVLPEGIRVLQAAAERWGFALSFEQMEWASCEYYSHHGKMMPDDWHEQLSRFDAIYFGAVGWPDTVPDHISLWGSLLKFRREFDQYVNLRPVRLFPGVPCPLAGKQPGDIDFYVVRENTEGEYSSLGGRVNEGTEHEVVIQESVFTRRGVDRILRYAFELAQSRPRKTLTSATKSNGLAISMPYWDERVEAMAENYPEIRWDKQHIDILCARFVMQPERFDVVVASNLFGDILSDLGPACTGTIGIAPSANLNPERTFPSLFEPVHGSAPDIYGKNIANPIATIWAGAMMLDFLGNGDERFQQAHNGILAAIEEVIAHGPKTPDMKGNATTPQVADAICKIILR”, with “soluble”; and “MDAELFPRTRAETAPGAVHLPDWLSPGQQRELLDACREWARPPAGLRTVRTPGGGTMTARQVCLGRHWYPYGYAATAVDGDGAPVKPFPARLDGLARRAVTDALGAEAVAPAPYDIALINFYDADARMGMHRDADERTDAPVVSLSLGDTCVFRFGNPETRTRPYTDTELRSGDLFVFGGPSRLAYHGVPRVHPGTAPPELGLRGRLNITLRVSGFLEHHHHHH”, with “not soluble”. Then “MCLIVFAWRPGHAQPLIVAANRDEFYARPSLPLGQWPELPQIHAGRDLEAGGTWLGVGAEGRFAALTNIRNPHQPPARRSRGELVARFLAGDVPLDDYLRDVVGRSVEYAGFNLLLGNAEQLWHYNARDPQPQRLEPGVYGLSNAGLDTPWPKLLKARAALQEVLHDPQPQALLALLSDPQTAPFADLPDTGVGLATESLLSSVFIASPSYGTRASTALIVHADGSRHLLERSFGPYGGHLGEVELKVLEHHHHHH”, with “not soluble”; and “MDNKLDVFRRELVDVEGIPLFWSIAEHWSQVESFEARPDDILISTYPKSGTTWVSEILDLIYNNGDAEKCKRDAIYKRVPFMELIIPGITNGVEMLNNMPSPRIVKTHLPVQLLPSSFWKNDCKIIYVARNAKDVVVSYYYFYQMAKIHPEPGTWEEFLEKFMAGQVSFGPWYDHVKSWWEKRKEYRILYLFYEDMKENPKCEIQKILKFLEKDIPEEILNKILYHSSFSVMKENPSANYTTMMKEEMDHSVSPFMRKGISGDWKNQFTVAQYEKFEEDYVKKMEDSTLKFRSEI”, with “soluble”.

As for “MAHHHHHHMPRGGHKGGLFPVSGIKWGMNERIKKRGLYHNRREDILTPRWGYRYENENKKYLPDGSSKSFDIDSSRAWPVDKAQWKYYYNINESRYLWPSICANNPEIKNYILNIIENTDTYFSGIGLEQVSNERKNKNLKKDYTNNSYYKNNYLYNLVHELNNTIYPQIEINLNNNLKRGRIQKLYDIIKEENIWKTTQKIKTPESENVFPYVDDNATLIRELPLSEILYTKSNLRLKVRRHPKWMNVQFLKKKVKIPYLYR”, the “soluble on expression in E. coli” value was “not soluble”. Then “MSLVEMVNRPYASAFEAFAVKNPDVLCLSADLTSSCEIDGFRDRHPDQFLSLGMAEQNMMSFAGGLGLAGYRPFLHSFGVFLYRRPYDQLMASVAYPRRKVRLMGFLPGITTPGGMTHQAIEDVAVMRSIPNMSILETGDATEVESICEAADSIDGPVYCRVLRGSIPRLFDTPIRVGEMRELALGADVLVVTSGIATEEALRARDALSNAGVSIRHLHIHTIKPFNEQALLDHIGSVSKGVVVLENHVITGGVGSLVAEIMADNGVGKPLVRLGLNDTYAHGGSRGYLMKHYGLDAGALVRGIERIIGASTGIDEEALASARVDAVHSAVKAEAEGHHHHHH”, with “not soluble”; and “QDLARIEQFLDALWLEKNLAENTLNAYRRDLSMMVEWLHHRGLTLATAQSDDLQALLAERLEGGYKATSSARLLSAVRRLFQYLYREKFREDDPSAHLASPKLPQRLPKDLSEAQVERLLQAPLIDQPLELRDKAMLEVLYATGLRVSELVGLTMSDISLRQGVVRVIGKGNKERLVPLGEEAVYWLETYLEHGRPWLLNGVSIDVLFPSQRAQQMTRQTFWHRIKHYAVLAGIDSEKLSPHVLRHAFATHLLNHGADLRVVQMLLGHSDLSTTQIYTHVATERLRQLHQ”, with “soluble”. The entry for “CGIVGAIAQRDVAEILLEGLRRLEYRGYDSAGLAVVDAEGHMTRLRRLGKVQMLAQAAEEHPLHGGTGIAHTRWATHGEPSEVNAHPHVSEHIVVVHNGIIENHEPLREELKARGYTFVSETDTEVIAHLVNWELKQGGTLREAVLRAIPQLRGAYGTVIMDSRHPDTLLAARSGSPLVIGLGMGENFIASDQLALLPVTRRFIFLEEGDIAEITRRSVNIFDKTGAEVKRQDIESNLQYDAGDKGIYRHYMQKEIYEQPNAIKNTLTGRISHGQVDLSELGPNADELLSKVEHIQILACGTSYNSGMVSRYWFESLAGIPCDVEIASEFRYRKSAVRRNSLMITLSQSGETADTLAGLRLSKELGYLGSLAICNVPGSSLVRESDLALMTNAGTEIGVASTKAFTTQLTVLLMLVAKLSKLKGLDASIEHDIVHGLQALPSRIEQMLSQDKRIEALAEDFSDKHHALFLGRGDQYPIALEGALKLKEISYIHAEAYAAGELKHGPLALIDADMPVIVVAPNNELLEKLKSNIEEVRARGGQLYVFADQDAGFVSSDNMHIIEMPHVEEVIAPIFYTVPLQLLAYHVALIKGTDVDQPRNLAKSVTVE” is “soluble”; for “MAEKLNFEELNSMQRYSQFAVFRAIPGALGSDRAEIVAQAQSFFDGLETAGKVEVRGIYDLAGCRAEADFMIWWIAEEFEEIQAAFARFRRETVLGQVSEVAWLGNSLHRPAEFNRSHLPSFIMGEIPGDWITVYPFVRSYDWYIMDPQKRRKILAEHGQAARDFPDVRANTVPAFALGDYEWMLAFEAPRLDRIVDLMHKMRYTEARLHVREETPFFTGRRVSEVSELVNVLP” it is “not soluble”; for “MKFCSQCGGEVILRIPEGDTLPRYICPKCHTIHYQNPKVIVGCIPEWENKVLLCKRAIAPYRGKWTLPAGFMENNETLVQGAARETLEEANARVEIRELYAVYSLPHISQVYMLFRAKLLDLDFFPGIESLEVRLFGEQEIPWNDIAFRVIHDPLKRYMEERHHGQPAFHLGIINKPQAGSNSNE” it is “soluble”.

Turning to “MKKKQVMLALTAAAGLGLTALHSAPAAKAAPLHDISVSMPSSDTYIIKAGKLNVRTEPNHEGDILGTVSSEQKVKVDRFVNADWAQIHFKGKKAYISTHFLMKTASQAKTTKQTAFYTPTPENGKAKQLSSGTEVTILGWGFSENGGFDFTWAFVDYGGVKGYIHTKDLQMRLEHHHHHH”, the “soluble on expression in E. coli” value is recorded as “soluble”. Consider “MADWVTGKVTKVQNWTDALFSLTVHAPINPFTAGQFTKLGLEIDGERVQRAYSYVNAPDNPNLEFYLVTVPQGKLSPRLAALKPGDEVQVVSDASGFFVLDEVPDCETLWMLATGTAIGPYLSILQYGQDVARFKNLVLVHAARFAADLSYLPLMLELQQRYEGKLRIQTVVSRENVPGSLTGRVPALIENGELEKAVGLPMDKETSHVMLCGNPQMVRDTQQLLKETRQMTKHLRRRPGHMTAEHYW”, for which the “soluble on expression in E. coli” value is reported as “not soluble”.
